Laboratory results reported in US20090123474A1, “COMBINATION OF ANGIOPOIETIN-2 ANTAGONIST AND OF VEGF-A, KDR AND/OR FLTL ANTAGONIST FOR TREATING CANCER” (ASTRAZENECA AB, priority 2005, published 2009).

Columns and labels:
Assay type in all cases: in vivo
[1] = test system: A431 human tumour xenografts; experiment: A431 xenograft efficacy study (Study A); settings: 3.19.3 10 mg/kg 2×wk i.p., VTKI 3 mg/kg/day p.o.
Procedure: (§1) The anti-tumor activity of monoclonal antibody 3.19.3 in combination with the VTKI 4-(4-fluoro-2-methylindol-5-yloxy)-6-methoxy-7-(3-piperidinopropoxy)quinazoline was evaluated in a xenograft model of human skin epidermoid carcinoma (Study A) and in a model of colorectal cancer (Study B) by using the A431 and Colo205 cell lines respectively.
(§2) A431 and Colo205 cells were cultured in flasks as routine until the cells reached sub-confluence. Immunodeficient 6-8 week old female mice (Ncr/nu/nu) were used. The cells were harvested and suspended in Matrigel. A cell suspension containing 1 to 5×10^6 cells was injected subcutaneously into the flank of the mice. The mice were randomized into different groups, each containing 10-15 mice. When the tumour volume reached 200 mm^3, the mice were randomized in each groups and the treatments were initiated. mAb 3.19.3 10 mg/kg in saline was injected intraperitoneally, twice per week for 2 weeks. 4-(4-fluoro-2-methylindol-5-yloxy)-6-methoxy-7-(3-piperidinopropoxy)quinazoline was treated peroral daily at doses ranging from 1.5 to 6 mg/kg in water containing 1% Tween80. The dimensions of each tumor were measured twice per week. The volume of the tumor was calculated as: Volume=Length×(Width)^2×0.5 (cm^3).

[2] = test system: human Colo205 colon tumour xenografts; experiment: Colo205 xenograft efficacy study (Study B); settings: 3.19.3 10 mg/kg 2×wk i.p., VTKI 6 mg/kg/day p.o.
Procedure: as §1, §2

[3] = test system: human HT29 colon tumour xenografts; experiment: HT29 xenograft efficacy study; settings: AZD2171 1.5 mg/kg/day p.o. d 0-27, 3.19.3 10 mg/kg i.p. day 0, 3, 7, 10, 14, 17, 21 and 24
Procedure: The efficacy of mAb 3.19.3 in combination with AZD2171 was evaluated in human HT29 xenografts. Briefly, 5×10^6 HT29 tumour cells in 0.1 ml of serum free Roswell Park Memorial Institute (RPMI)-1640 medium were injected subcutaneously into the flanks of 60 athymic (nu/nu genotype) mice. When tumours reached a volume of 200 to 400 mm^3 (9-10 days), mice were randomized into groups (8 per group) and treatment started (day 0).
The control group (Group 1) received a daily oral (p.o.) administration of vehicle only for 28 consecutive days (day 0-27). Group 2 treatment consisted of a daily p.o. administration of AZD2171 alone at 1.5 mg/kg/administration for 28 consecutive days (day 0-27). AZD2171 was prepared as a suspension in 1% polysorbate 80 (i.e. a 1% (v/v) solution of polyoxyethylene (20) sorbitan mono-oleate in deionised water). […]
Tumour volumes (mm^3) were assessed at least twice weekly by bilateral Vernier caliper measurement and, taking length to be the longest diameter across the tumor and width the corresponding perpendicular, calculated using the formula (π/6)×(length×width)×√ (length×width). Growth inhibition from the start of treatment was assessed by comparison of the differences in tumor volume between control and treated groups. […] For all mice, the tumours were excised and weights recorded upon termination of the study.

[4] = test system: human SW620 colon tumour xenografts; experiment: SW620 xenograft efficacy study; settings: 3.19.3 10 mg/kg 2×wk i.p., DC101 15 mg/kg 2×wk i.p., 3 weeks
Procedure: The anti-tumor activity of mAb 3.19.3 was evaluated in combination with monoclonal antibody DC101 which is directed against VEGFR-2/KDR, in the SW620 colorectal cancer xenograft model. Briefly, SW620 cells were cultured under routine tissue culture conditions in flasks until the cells reached sub-confluence. Immunodeficient 8-10 week old NCr nude mice were used, and cell suspensions containing approximately 1×10^6 cells were injected subcutaneously into the right flank of the mice. After the tumour volumes reached 100 mm^3, the mice were randomized in groups and the treatments were initiated. The mAb 3.19.3 10 mg/kg in saline was injected intraperitoneally, twice per week for 3 weeks. The mAb DC101 15 mg/kg in saline was also injected intraperitoneally, following the same schedule of twice per week for 3 weeks. The dimensions of each tumor were measured twice per week. The volume of the tumor was calculated as: Volume=Length×(Width)^2×0.5 (cm^3).

B1: mAb 3.19.3: fully human anti-Angiopoietin-2 monoclonal antibody, variable regions SEQ ID NO: 5-8; also binds Angiopoietin-1 (antibody, V domains shown)
VH: QVQLVESGGGVVQPGRSLRLSCAASGFTFTNYGMHWGRQAPGKGLEWVAVISHDGNNKYYVDSVKGRFTISRDNSKNTLYLQMNSLRAEDTAVYYCAREGIDFWSGLNWFDPWGQGTLVTVSSA
VL: EIVLTQSPGTLSLSPGERATLSCRASQSITGSYLAWYQQKPGQAPRLLICGASSWATGIPDRFSGSGSGTDFTLTISRLEPEDFAVYYCQQYSSSPITFGQGTRLEIKR
% tumor growth inhibition [1]: 46%
% inhibition [2]: 35%
Inhibition of Control Tumour Growth Day 28 [3]: 40%
tumour inhibition [4]: 48%
